Measured values reported in patent publication US5436138A, “Method for protein N-myristoylation” (Washington University, priority 1993, dated 1995).
Residue numbers refer to the chain shown, from its start. Where a SMILES comes first, the peptide text is derived from it.

Key:
[1] = biological target: T1, E. coli-derived S. cerevisiae NMT (Total E. coli NMT) (Saccharomyces cerevisiae, UniProt P14743, S2A); experiment: coupled in vitro assay for NMT activity, Total E. coli NMT; assay type: biochemical; details: 15 μM myristate; for Vmax, Total E. coli NMT: peptide substrate, percentage of Vmax with GNAAAARR and myristoyl-CoA; for Km: peptide substrate varied
T1 construct: intact 53 kDa (codon 2 Ser to Ala from cloning) plus 45 kDa truncated form
T1 sequence (P14743 1-455 S2A): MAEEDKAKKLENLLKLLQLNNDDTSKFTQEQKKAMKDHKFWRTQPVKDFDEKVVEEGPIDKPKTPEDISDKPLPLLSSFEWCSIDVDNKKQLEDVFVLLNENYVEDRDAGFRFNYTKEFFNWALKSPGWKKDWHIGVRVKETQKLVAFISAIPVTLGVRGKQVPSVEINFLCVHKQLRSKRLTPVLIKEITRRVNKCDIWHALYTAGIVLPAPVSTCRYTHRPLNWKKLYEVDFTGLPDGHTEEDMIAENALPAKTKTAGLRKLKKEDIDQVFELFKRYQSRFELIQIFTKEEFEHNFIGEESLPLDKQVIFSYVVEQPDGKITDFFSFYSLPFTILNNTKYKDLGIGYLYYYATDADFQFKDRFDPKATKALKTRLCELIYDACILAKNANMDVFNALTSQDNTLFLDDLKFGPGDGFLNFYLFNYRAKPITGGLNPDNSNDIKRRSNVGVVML
Experimental: (§1) In vitro assay system for NMT activity. To assess the peptide and acyl-CoA substrate specificities of E. coli-derived S. cerevisiae NMT, crude lysates or partially purified enzyme preparations were added to a coupled in vitro assay system [Towler and Glaser, Proc. Natl. Acad. Sci. USA 83, 2812-2816 (1986)]. The first step of this assay involves enzymatic conversion of radiolabeled fatty acids to their CoA thioesters by Pseudomonas acyl-CoA ligase. This ligase is largely nonspecific for fatty acid substrates [Shimizu et al., Anal. Biochem. 107, 193-198 (1980)]. Octapeptide substrates and NMT were then added to produce acylpeptides. Acylpeptides were purified from the reaction mixture by trichloroacetic acid/methanol precipitation and C18 reverse phase HPLC using a linear gradient of acetonitrile in water [Towler and Glaser, Proc. Natl. Acad. Sci. USA 83, 2812-2816 (1986)].
(§2) The peptide Km and Vmax values shown in the above Table I are averages obtained from 4- or 5-point Lineweaver-Burke plots. These plots were produced using data generated in at least three independent in vitro NMT assays. Varying concentrations of peptides were assayed with 15 μM myristate to determine peptide Km and Vmax values. […] Yeast NMT was from a 570 fold purified preparation [Towler et al., Proc. Natl. Acad. Sci. USA 84, 2708-2712 (1987)]. Synthetic peptide substrates are represented by their conventional one letter amino acid code. […] ND=not determined.

[2] = biological target: T2, 45 kDa E. coli NMT (NMT missing the NH2-terminal 39 residues) (Saccharomyces cerevisiae, UniProt P14743); experiment: coupled in vitro assay for NMT activity, 45 kDa E. coli NMT; assay type: biochemical, S. cerevisiae; details: for Km: peptide substrate varied; for Vmax, 45 kDa E. coli NMT: percentage of Vmax with GNAAAARR and myristoyl-CoA
T2 construct: S2A lies in the removed part
T2 sequence (P14743 40-455): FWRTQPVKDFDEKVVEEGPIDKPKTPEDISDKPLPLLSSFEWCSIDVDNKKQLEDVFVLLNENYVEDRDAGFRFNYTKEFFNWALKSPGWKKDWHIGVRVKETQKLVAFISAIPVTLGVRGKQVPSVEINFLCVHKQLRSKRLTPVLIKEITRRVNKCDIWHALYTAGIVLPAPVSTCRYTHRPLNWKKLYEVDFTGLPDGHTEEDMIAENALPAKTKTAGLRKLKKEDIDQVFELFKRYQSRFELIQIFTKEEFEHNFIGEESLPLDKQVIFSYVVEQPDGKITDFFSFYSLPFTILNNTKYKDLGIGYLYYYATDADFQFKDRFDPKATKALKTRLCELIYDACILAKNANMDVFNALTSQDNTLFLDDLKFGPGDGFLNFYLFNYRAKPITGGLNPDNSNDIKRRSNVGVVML
Experimental: as §1
To obtain a homogenous preparation of the enzyme, E. coli-produced NMT was further purified by Mono S fast protein liquid chromatography (FPLC).
as §2

[3] = biological target: T3, Yeast NMT (partially purified from S. cerevisiae) (Saccharomyces cerevisiae, UniProt P14743); experiment: coupled in vitro assay for NMT activity, Yeast NMT; assay type: biochemical; details: for Vmax, Yeast NMT: percentage of Vmax with GNAAAARR and myristoyl-CoA; for Km: peptide substrate varied, 570 fold purified preparation
T3 sequence (P14743 1-455): T1 sequence (P14743 1-455 S2A) with A2S
Experimental: as §1, §2

[4] = biological target: T4, yeast NMT coexpressed with murine PK-A C-subunit in E. coli strain JM101 (Saccharomyces cerevisiae, UniProt P14743, S2A); experiment: [3H]Fatty acid labeling of PK-A C-subunit produced in E. coli coexpressing yeast NMT1; assay type: cell-based, S. cerevisiae; details: for incorporation of [3H]fatty acid into the C-subunit of PK-A: E. coli JM101 with NMT1 and wild type Cα plasmids after induction, SDS-PAGE and fluorography
T4 construct: metabolic labeling in cells
Experimental: [^3 H]Fatty acid labeling of PK-A C-subunit produced in E. coli. Four ml cultures of the double transformants were shaken at 37° C. to an OD600 of 0.5 in LB broth+100 μg/ml ampicillin and 100 μg/ml kanamycin sulfate. Isopropyl-β-D-thiogalactopyranoside (IPTG) was then added to a final concentration of 1 mM to induce NMT production (see Results, below). When the cultures reached OD600 =1.0 (approximately 40 min later), nalidixic acid was added to a final concentration of 50 μg/ml to induce C-subunit production (see Results, below). [^3 H]Myristate (New England Nuclear; 39.3 Ci/mmol, 113 μCi added per ml of culture), [^3 H]palmitate (New England Nuclear; 30 Ci/mmol, 143 μCi/ml), or [^3 H]10-(propoxy)decanoate [Heuckeroth and Gordon, Proc. Natl. Acad. Sci. USA 86, 5262-5266 (1989)] (31.7 Ci/mmol, 800 μCi/ml) was added simultaneously with the nalidixic acid. Cultures were shaken for an additional 20 min at 37° C. and the cells were harvested by centrifugation. Lysates were prepared by boiling E. coli contained in the pellet for 10 min in 40 μL of a solution of 125 mM Tris, pH 8.0, 4% SDS, 20% glycerol, 10% β-mercaptoethanol, and 0.2M dithiothreitol. Cell debris was removed by centrifugation and 15 μl aliquots of the supernatant were subjected to SDS-PAGE [Laemmli, Nature 227, 680-685 (1970)] and subsequent fluorography using EN^3 HANCE (New England Nuclear) autoradiography enhancer. For Western blot analyses, 50 μg of reduced and denatured lysate proteins, prepared from unlabeled E. coli producing Gly^2 -C-subunit or Ala^2 -C-subunit, were separated by SDS-PAGE, electroblotted onto nitrocellulose [Burnette, Anal. Biochem. 112, 195-230 (1981)], and the filters probed with polyclonal, monospecific rabbit antisera raised against purified mouse C-subunit. Antigen-antibody complexes were visualized with ^125 I-protein A [Burnette, supra.].

[5] = peptide substrate, 15 μM myristate
[6] = fatty acyl-CoA substrate, 60 μM GNAAAARR

For `C[C@H](NC(=O)[C@H](C)NC(=O)[C@H](C)NC(=O)[C@H](CC(N)=O)NC(=O)CN)C(=O)N[C@@H](C)C(=O)N[C@@H](CCCNC(=N)N)C(=O)N[C@@H](CCCNC(=N)N)C(N)=O` (H-GNAAAARR-NH2), the “Vmax, Total E. coli NMT” value [1] was 100%, the Km ([2]; 15 μM myristate) was 62.5 µM and the “Vmax, 45 kDa E. coli NMT” value [2, 5] was 100%. For the same compound, the “Vmax, Yeast NMT” value [3, 5] was 100%.
`C[C@H](NC(=O)[C@H](C)NC(=O)[C@H](CC(N)=O)NC(=O)CN)C(=O)N[C@@H](CO)C(=O)N[C@@H](C)C(=O)N[C@@H](CCCNC(=N)N)C(=O)N[C@@H](CCCNC(=N)N)C(N)=O` (H-GNAASARR-NH2) was tested, and the “Vmax, Total E. coli NMT” value [1] was 3.6%, the “Vmax, 45 kDa E. coli NMT” value [2, 5] was 4.9% and the “reduction in apparent Km” value ([2]; relative to GNAAAARR-NH2, Mono S purified 45 kDa NMT) was 100 fold. For the same compound, the “Vmax, Yeast NMT” value [3, 5] was 3%.
With `CCCOCCCCCCCCCC(=O)SCCNC(=O)CCNC(=O)[C@H](O)C(C)(C)COP(=O)(O)OP(=O)(O)OC[C@H]1O[C@@H](n2cnc3c(N)ncnc32)[C@H](O)[C@@H]1OP(=O)(O)O` [11-oxamyristoyl-CoA] the “Vmax, 45 kDa E. coli NMT” value [2, 6] was 450% and the “Vmax, Yeast NMT” value [3, 6] was 270%.
With `CCCCCCCCCCCCCC(=O)SCCNC(=O)CCNC(=O)[C@H](O)C(C)(C)COP(=O)(O)OP(=O)(O)OC[C@H]1O[C@@H](n2cnc3c(N)ncnc32)[C@H](O)[C@@H]1OP(=O)(O)O` [Myristoyl-CoA] the “Vmax, 45 kDa E. coli NMT” value [2, 6] was 100% and the “Vmax, Yeast NMT” value [3, 6] was 100%.
`CCCCCCCCCCCCCCCC(=O)SCCNC(=O)CCNC(=O)[C@H](O)C(C)(C)COP(=O)(O)OP(=O)(O)OC[C@H]1O[C@@H](n2cnc3c(N)ncnc32)[C@H](O)[C@@H]1OP(=O)(O)O` [Palmitoyl-CoA] was tested, and the “Vmax, 45 kDa E. coli NMT” value [2, 6] was 22.4% and the “Vmax, Yeast NMT” value [3, 6] was 21%.
With `CCCOCCCCCCCCCC(=O)O` [[^3 H]10-(propoxy)decanoic acid, 10-(propoxy)decanoic acid] the “incorporation of [3H]fatty acid into the C-subunit of PK-A” value (from here on “incorporation”) [4] was “effective alternative substrate for NMT that could be incorporated into the C-subunit of PK-A” and the “incorporation” value ([4]; listed as [^3 H]11-oxamyristate) was “could also be labeled in a Gly^2 dependent manner”.
With `CCCCCCCCCCCCCC(=O)O` [[^3 H]Myristic acid, Myristic acid] the “Pronase E digestion product of the labeled C-subunit” value ([4]; C18 reverse-phase HPLC) was “co-migrated with the chemically synthesized [^3 H]myristoylglycine standard”, the “incorporation” value [4] was “efficiently linked to the Gly^1 residue of the C-subunit” and the “incorporation” value ([4]; listed as [^3 H]myristic acid) was “a 40 kDa protein was metabolically labeled”. The “overall efficiency of NMT-catalyzed linkage of the myristoyl moiety to the C-subunit” value ([4]; in E. coli, estimated from Western blot, incorporated label and specific activity) was roughly 100%.
ANAAAARR was tested, and the “Vmax, Total E. coli NMT” value [1] was “Not a substrate”, the “Vmax, 45 kDa E. coli NMT” value [2, 5] was “Not a substrate” and the “Vmax, Yeast NMT” value [3, 5] was “Not a substrate”.
“ASSKSKPK [synthetic octapeptide, one letter amino acid code]” was tested, and the “Vmax, Total E. coli NMT” value [1] was “Not a substrate”, the “Vmax, 45 kDa E. coli NMT” value [2, 5] was “Not a substrate” and the “Vmax, Yeast NMT” value [3, 5] was “Not a substrate”.
With “GDAAAARR [synthetic octapeptide substrate, one letter amino acid code]” the Km [1] was 645 µM, the “Vmax, Total E. coli NMT” value [1] was 4.2% and the “Vmax, 45 kDa E. coli NMT” value [2, 5] was less than 2%. For the same compound, the “Vmax, Yeast NMT” value [3, 5] was less than 2%.
In the case of “GNAADARR [synthetic octapeptide substrate, one letter amino acid code]”, the Km [1] is reported as 503 µM, the “Vmax, Total E. coli NMT” value [1] is reported as 4.9% and the “Vmax, 45 kDa E. coli NMT” value [2, 5] is reported as less than 2%. The “Vmax, Yeast NMT” value [3, 5] was less than 2%.
For “GPAAAARR [synthetic octapeptide substrate, one letter amino acid code]”, the Km [1] was 7100 µM, the “Vmax, Total E. coli NMT” value [1] was 21.6% and the “Vmax, 45 kDa E. coli NMT” value [2, 5] was less than 2%. For the same compound, the “Vmax, Yeast NMT” value [3, 5] was less than 2%.
In the case of “GSAAAARR [synthetic octapeptide substrate, one letter amino acid code]”, the Km [1] is reported as 697 µM, the “Vmax, Total E. coli NMT” value [1] is reported as 27.6% and the Km ([3]; 15 μM myristate) is reported as 1700 µM. The “Vmax, Yeast NMT” value [3, 5] was 50%.
In the case of “GSAASARR [synthetic octapeptide substrate, one letter amino acid code]”, the Km [1] is reported as 2.1 µM, the “Vmax, Total E. coli NMT” value [1] is reported as 29% and the Km ([3]; 15 μM myristate) is reported as 3 µM. The “Vmax, Yeast NMT” value [3, 5] was 34%.
With “GSSKSKPK [synthetic octapeptide substrate, one letter amino acid code]” the Km [1] was 48.5 µM, the “Vmax, Total E. coli NMT” value [1] was 33% and the Km ([2]; 15 μM myristate) was 66 µM. The “Vmax, 45 kDa E. coli NMT” value [2, 5] was 52%, the Km ([3]; 15 μM myristate) was 40 µM and the “Vmax, Yeast NMT” value [3, 5] was 43%.
With “GYAAAARR [synthetic octapeptide, one letter amino acid code]” the “Vmax, Total E. coli NMT” value [1] was less than 2%, the “Vmax, 45 kDa E. coli NMT” value [2, 5] was less than 2% and the “Vmax, Yeast NMT” value [3, 5] was “Not a substrate”.
MGNAAAARR was tested, and the “Vmax, Total E. coli NMT” value [1] was “Not a substrate”, the “Vmax, 45 kDa E. coli NMT” value [2, 5] was “Not a substrate” and the “Vmax, Yeast NMT” value [3, 5] was “Not a substrate”.
